Measured values reported in patent US20110020786A1 (BAYLOR COLLEGE OF MEDICINE, published 2011).
Ends that are not written are not given here.

Assays:
[1] = biological target: T1, Norwalk virus-like particles (genogroup I) (Norwalk virus (genogroup I Norovirus), UniProt Q83884 1-530); experiment: ELISA: dendrimer coated, VLPs added, detection with MAb3912 and goat anti-mouse-HRP, ABTS at 405 nm
T1 construct: also called NV; NVLPs
T1 sequence: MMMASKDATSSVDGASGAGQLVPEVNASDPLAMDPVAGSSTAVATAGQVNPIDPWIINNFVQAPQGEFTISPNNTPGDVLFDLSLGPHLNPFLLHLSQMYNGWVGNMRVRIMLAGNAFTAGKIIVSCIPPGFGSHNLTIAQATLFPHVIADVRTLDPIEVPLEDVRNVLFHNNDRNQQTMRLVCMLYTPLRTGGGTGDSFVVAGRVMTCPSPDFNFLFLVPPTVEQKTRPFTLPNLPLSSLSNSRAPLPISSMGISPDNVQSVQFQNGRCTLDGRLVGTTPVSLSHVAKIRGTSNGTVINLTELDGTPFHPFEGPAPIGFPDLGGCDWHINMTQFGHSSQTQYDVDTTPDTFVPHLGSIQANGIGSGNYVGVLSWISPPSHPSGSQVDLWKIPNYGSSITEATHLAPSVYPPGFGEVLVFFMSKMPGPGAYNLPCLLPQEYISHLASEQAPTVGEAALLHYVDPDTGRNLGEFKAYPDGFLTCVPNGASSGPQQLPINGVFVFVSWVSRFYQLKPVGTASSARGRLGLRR

[2] = biological target: T2, Grimsby virus-like particles (genogroup II) (Norovirus genogroup II, Grimsby strain); experiment: SPR (BIAcore), VLPs immobilized, dendrimer injected
T2 construct: Recombinant VLP; also called GRV

[3] = biological target: T3, Snow Mountain virus-like particles (genogroup II) (Norovirus genogroup II, Snow Mountain …); experiment: as above
T3 construct: Recombinant VLP; also called SMV

[4] = biological target: T4, Houston virus-like particles (genogroup II) (Norovirus genogroup II, Houston strain); experiment: as above
T4 construct: Recombinant VLP; also called HOV

[5] = biological target: T1, Norwalk virus-like particles (genogroup …); experiment: as above
[6] = biological target: T1, Norwalk virus-like particles (genogroup …); experiment: ELISA: dendrimer coated at 0.4 mg/mL (32 µM), VLPs added at 2 µg/mL, detection with MAb3912 and goat anti-mouse-HRP, ABTS at 405 nm

B1: SREPQYGGPAAD8 (the octovalent dendrimer of SEQ ID NO: 5) (peptide)
peptide branch of the dendrimer: SREPQYGGPAAD
notes: also called nonspecific octovalent dendrimer
binding result [1]: no binding

B2: AHFQTHTVPLSL8 (the octovalent dendrimer of SEQ ID NO: 2) (peptide)
peptide: AHFQTHTVPLSL
modifications: also: octovalent MAP dendrimer, eight copies on branching lysine core
notes: Octovalent peptide dendrimer (MAP)
equilibrium average response [2]: 6380 RU
equilibrium average response [3]: 6430 RU
equilibrium average response [4]: 6710 RU
equilibrium average response [5]: 6750 RU

B3: RHFQTHTVPLSL8 (the octovalent dendrimer of SEQ ID NO: 1) (peptide)
peptide: RHFQTHTVPLSL
modifications: also: octovalent MAP dendrimer, eight copies on branching lysine core
notes: as for B2
binding result [6]: binds
